In experiment [1] the target is T1, amphyphisin SH3 (AMPH_HUMAN), P49418.
T1 chain: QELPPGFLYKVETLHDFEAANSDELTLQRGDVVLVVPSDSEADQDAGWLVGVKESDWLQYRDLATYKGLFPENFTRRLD
Briefly: SPOT array.

Experiment [2] concerns the target endophilin SH3 (SH3G2_HUMAN), Q99962. Nature of the experiment: SPOT array.

With SRKNLKRPIAHLPS [Q13112 270-283], the normalised SPOT signal, Boehringer light units (BLU); mean over the file's lines of this peptide in experiment [1] is 60.1; in experiment [2], 33.5.

For SQPGPAKPPAQPSG [Q9Y6V0 287-301], the normalised SPOT signal, Boehringer light units (BLU); mean over the file's lines of this peptide in experiment [1] was 78.5; in experiment [2] it was 130.

SQSFIIRPQKEGER [Q05397 355-368]: the normalised SPOT signal, Boehringer light units (BLU); mean over the file's lines of this peptide in experiment [1] turned out to be 118; in experiment [2], 87.4.

On to SSTFLQRPIRKPSK [Q9UI27 293-306], for which the normalised SPOT signal, Boehringer light units (BLU); mean over the file's lines of this peptide in experiment [1] amounted to 4730; in experiment [2], 341.

For the molecule SSGRPGRPPGPAAA [Q99491 157-171], the figures for the normalised SPOT signal, Boehringer light units (BLU); mean over the file's lines of this peptide in experiment [1] and in experiment [2] were 72.6 and 1800, respectively.

For the molecule SQGPPPRPGKPEGS [Q04118 215-228], the normalised SPOT signal, Boehringer light units (BLU); mean over the file's lines of this peptide in experiment [1] stood at 103; in experiment [2] it was 132.

In the case of SQQPPSRPPHLPVE [Q9UPQ2 54-68], the values for the normalised SPOT signal, Boehringer light units (BLU); mean over the file's lines of this peptide in experiment [1] and in experiment [2] were 45.1 and 775, respectively.

In the case of SRLHFGRPRRADYL [Q13629 53-66], the normalised SPOT signal, Boehringer light units (BLU); mean over the file's lines of this peptide in experiment [1] turned out to be 842; in experiment [2] it was 202.

With SQGPPPRPGKPEGQ [Q04118 68-81], the normalised SPOT signal, Boehringer light units (BLU); mean over the file's lines of this peptide in experiment [1] was found to be 120; in experiment [2], 103.

Take SQEILRRPIVASEL [Q9UHW3 40-53]: the normalised SPOT signal, Boehringer light units (BLU); mean over the file's lines of this peptide in experiment [1] was 21.1; in experiment [2] it was 53.9.

As for SQGPPPRPGKPEGP [Q9UCT9 1-14], the normalised SPOT signal, Boehringer light units (BLU); mean over the file's lines of this peptide stood at 106 in experiment [1] and 3230 in experiment [2].

As to SPRLPRRPTVESHH [O94883 131-144], the values for the normalised SPOT signal, Boehringer light units (BLU); mean over the file's lines of this peptide in experiment [1] and in experiment [2] were 1290 and 4830, respectively.

Regarding SQGPLQRPSRLVFT [Q9UK00 141-154], the normalised SPOT signal, Boehringer light units (BLU); mean over the file's lines of this peptide in experiment [1] came to 1370; in experiment [2], 69.8.

For the molecule SPVHLRRPQSPGAS [Q9Y556 324-337], the normalised SPOT signal, Boehringer light units (BLU); mean over the file's lines of this peptide in experiment [1] was 31.7; in experiment [2], 56.3.

Turning to SPQAPRRPLPQVAT [Q13421 406-419], the normalised SPOT signal, Boehringer light units (BLU); mean over the file's lines of this peptide in experiment [1] amounted to 587; in experiment [2], 437.

For the molecule SQIPPQRPQRDQRV [Q13283 290-303], the figures for the normalised SPOT signal, Boehringer light units (BLU); mean over the file's lines of this peptide in experiment [1] and in experiment [2] were 14100 and 15300, respectively.

As for SRLTLLRPEKDGEA [Q9H7S7 483-496], the values for the normalised SPOT signal, Boehringer light units (BLU); mean over the file's lines of this peptide in experiment [1] and in experiment [2] were 214 and 185, respectively.

With SQQNFHRPVKVRKK [Q9UI45 537-550], the normalised SPOT signal, Boehringer light units (BLU); mean over the file's lines of this peptide in experiment [1] amounted to 52.5; in experiment [2] it was 99.7.

On to SQAFIYRPIRQRVY [Q9NU43 22-35], for which the normalised SPOT signal, Boehringer light units (BLU); mean over the file's lines of this peptide was determined as 621 in experiment [1] and 102 in experiment [2].

SPPSPDRPPHSQTS [Q03164 2117-2131]: the values for the normalised SPOT signal, Boehringer light units (BLU); mean over the file's lines of this peptide in experiment [1] and in experiment [2] were 56.4 and 69.3, respectively.

SPRALWRPPRRRTQ [O94807 430-443]: the normalised SPOT signal, Boehringer light units (BLU); mean over the file's lines of this peptide in experiment [1] is 1010; in experiment [2], 1210.

For the molecule SREGPARPYRLKPG [Q9ULL4 1157-1170], the normalised SPOT signal, Boehringer light units (BLU); mean over the file's lines of this peptide in experiment [1] is 1270; in experiment [2], 1200.

On to SPQEPKRPSQLPSP [O14686 4038-4051], for which the normalised SPOT signal, Boehringer light units (BLU); mean over the file's lines of this peptide in experiment [1] came out at 52.9; in experiment [2], 33.

As for SRNIFKRPLGSRIE [P12111 1320-1333], the normalised SPOT signal, Boehringer light units (BLU); mean over the file's lines of this peptide in experiment [1] amounted to 30.4; in experiment [2] it was 0.9.

As for SSSGPKRPQDKVAV [P21399 369-382], the normalised SPOT signal, Boehringer light units (BLU); mean over the file's lines of this peptide in experiment [1] came out at 50.5; in experiment [2] it was 50.4.

Regarding SQNEPKRPMSGEYG [Q9Y6X4 283-296], the normalised SPOT signal, Boehringer light units (BLU); mean over the file's lines of this peptide in experiment [1] is 17; in experiment [2], 21.5.

With SQRRPRRPPTVFRL [Q96Q00 325-339], the normalised SPOT signal, Boehringer light units (BLU); mean over the file's lines of this peptide in experiment [1] worked out at 1550; in experiment [2] it was 10900.

For SPVLPARPPPPPLS [O00508 1114-1128], the normalised SPOT signal, Boehringer light units (BLU); mean over the file's lines of this peptide in experiment [1] amounted to 399; in experiment [2], 4080.

With SPPVPPRPPSSGPP [Q9UKN7 661-675], the results for the normalised SPOT signal, Boehringer light units (BLU); mean over the file's lines of this peptide in experiment [1] and in experiment [2] were 1270 and 1880, respectively.

For SPVLPARPPPPPLP [O75412 1038-1052], the figures for the normalised SPOT signal, Boehringer light units (BLU); mean over the file's lines of this peptide in experiment [1] and in experiment [2] were 713 and 1520, respectively.

As for SPSVPKRPKLPAPT [P18887 266-279], the normalised SPOT signal, Boehringer light units (BLU); mean over the file's lines of this peptide was 1780 in experiment [1] and 22000 in experiment [2].

Turning to SRGPPRRPPRSVKL [Q96DR3 69-83], the normalised SPOT signal, Boehringer light units (BLU); mean over the file's lines of this peptide is 20600 in experiment [1] and 10200 in experiment [2].

With SPTVPIKPPSIPNG [Q13557 471-485], the normalised SPOT signal, Boehringer light units (BLU); mean over the file's lines of this peptide in experiment [1] amounted to 66.5; in experiment [2], 112.

Regarding SSGILKRPQTLAIP [Q9Y2W3 232-245], the normalised SPOT signal, Boehringer light units (BLU); mean over the file's lines of this peptide in experiment [1] was determined as 71.5; in experiment [2], 10.4.

Turning to SSDWLRRPLGEDNQ [Q9Y6S1 96-109], the normalised SPOT signal, Boehringer light units (BLU); mean over the file's lines of this peptide in experiment [1] was 43.6; in experiment [2], 37.4.

Take SSEEPRRPLRSDMV [Q9H6D1 6-19]: the normalised SPOT signal, Boehringer light units (BLU); mean over the file's lines of this peptide in experiment [1] is 1890; in experiment [2], 110.

With SRSPPKKPPKRTSS [O60585 365-379], the normalised SPOT signal, Boehringer light units (BLU); mean over the file's lines of this peptide in experiment [1] was 236; in experiment [2], 2210.

For SQALPPRPPPPAPV [Q13330 692-706], the normalised SPOT signal, Boehringer light units (BLU); mean over the file's lines of this peptide in experiment [1] was 44.7; in experiment [2] it was 2540.

For the origin of these results see PMC314469, “Protein Interaction Networks by Proteome Peptide Scanning” (PLoS Biology, 2004).
